According to patent publication US20160200813A1:

Tests used:
[1] = biological target: Cynomolgus monkey LRP-8 expressed on HEK293 cells (cynomolgus monkey); assay: FACS, cyno LRP8 cells
[2] = biological target: Mouse LRP-8 expressed on HEK293 cells (mouse) (UniProt Q924X6); assay: FACS, mouse LRP8 cells
[3] = biological target: CR1 cyclic peptide of human LRP-8 (human); assay: ELISA using CR1 peptide

Substance “Negative IgG control (Table 20) (antibody)” has an FACS (ratio +/-) [1] of 0.8, an FACS (ratio +/-) [2] of 1 and an OD450 [3] of 0.08 OD450.
